Experimental data published in patent US20040018558A1 (published 2004).
Where no end group is shown, it is not given here.

B1: Clone No. 27 (Table IX) MCESLKECGLF (peptide, not shown: small tags and cut ends)
chain: MCESLKECGLF
modifications: cysteine pairing not given here; also: fused to LacI carrier via linker, letters not given here
B2: Clone No. 10 (Table IX) ICENLKECGLF (peptide, not shown: small tags and cut ends)
chain: ICENLKECGLF
modifications: cysteine pairing not given here; also: fused to LacI carrier via linker, letters not given here

Molecular target: T1, rhodopsin (activation state not stated) (bovine, UniProt P02699 1-348)
T1 construct: whole, on cells; same protein as m1; also called EDTA-washed rhodopsin
T1 sequence (P02699 whole entry): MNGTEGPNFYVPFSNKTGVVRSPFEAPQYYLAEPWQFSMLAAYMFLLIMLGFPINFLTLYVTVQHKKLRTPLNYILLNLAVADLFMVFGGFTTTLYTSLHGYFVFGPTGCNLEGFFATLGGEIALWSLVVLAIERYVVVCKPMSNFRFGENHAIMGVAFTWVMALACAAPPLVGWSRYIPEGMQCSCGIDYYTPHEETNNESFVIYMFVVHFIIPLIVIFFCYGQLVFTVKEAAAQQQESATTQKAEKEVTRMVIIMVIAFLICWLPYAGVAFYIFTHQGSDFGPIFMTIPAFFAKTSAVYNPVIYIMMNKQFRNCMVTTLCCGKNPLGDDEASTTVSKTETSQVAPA
Experiment: ELISA of lysates, OD450 with receptor minus without receptor
Description: The methods of Example 7 repeated using rhodopsin screening with a Gt library. To identify the rank order of binding, the lysates were analyzed using ELISA methods in which the secondary antibody was conjugated to HRP. Following addition of the substrate, the microplate was read using a spectrophotometer. The binding is the OD₄₅₀ for wells with receptor—OD₄₅₀ for wells in which no receptor (control wells with empty lipid vesicles).

Row | Binder | ELISA
1 | IVEILEDCGLF (peptide, not shown: small tags and cut ends, also: fused to fusion carrier of the lysate via linker, not given here) [L33 IVEILEDCGLF] | 1.01 OD450
2 | IRDNLKDCGLF (peptide, not shown: small tags and cut ends, also: fused to fusion carrier of the lysate via linker, not given here, second of two rows labelled L10) [L10 IRDNLKDCGLF] | 0.162 OD450
3 | MLDNLKDCGLF (peptide, not shown: small tags and cut ends, also: fused to lysate carrier and linker, not given here) [L7 MLDNLKDCGLF] | 0.525 OD450

Molecular target: T2, light-activated rhodopsin (bovine rod outer segment membranes) (bovine, UniProt P02699 1-348, retinylidene chromophore bound to Lys-296)
T2 construct: whole, on cells; native receptor in membrane fragments immobilised on wells, not intact cells; also called metarhodopsin II; MII
T2 sequence (P02699 whole entry, the tested form may be a part): as the sequence (P02699 whole entry) above
Experiment: LacI display panning, light-activated ROS membranes
Description: For screening of the library by “panning,” rhodopsin receptors prepared according to Example 5 were immobilized directly on Immulon 4 (Dynatech) microtiter wells (0.1-1 μg of protein per well) in cold 35 mM HEPES, pH 7.5, containing 0.1 mM EDTA, 50 mM KCl and 1 mM dithiothreitol (HEK/DTT). After shaking for one hour at 4° C., unbound membrane fragments were washed away with HEK/DTT. The wells were blocked with 100 μl 2% BSA in HEKL (35 mM HEPES; 0.1 mM EDTA; 50 mM KCl; 0.2 M α-lactose; pH 7.5, with 1 mM DTT). For rounds 1 and 2, BSA was used for blocking; in later rounds 1% nonfat dry milk was used. For the first round of panning, about 24 wells of a 96-well plate were used. In subsequent rounds, 8 wells with receptor and 8 wells without receptor were prepared.
The Gt library was thawed (2 mL aliquot) and mixed with 6 mL lysis buffer on ice. Lysis buffer contains 4.25 mL HE (25 mM HEPES: 0.1 mM EDTA; pH 7.5); 1 mL 50% glycerol; 750 μL 10 mg/mL protease-free BSA in HE; 10 μL 0.5 M DTT; and 6.25 μL 0.2 M PMSF. Freshly prepared lysozyme solution (150 μL 10 mg/mL lysozyme in cold HE) was added and the tube was gently inverted several times and incubated on ice for no more than two minutes. The extent of lysis is evidenced by an increase in viscosity that can be observed by noting the slow migration of bubbles to the top of the tube after mixing. Lysis was terminated by mixing in 2 mL 20% lactose and 250 μL 2M KCl. The tube was centrifuged immediately at 13,000×g for 15 minutes at 4° C. and the supernatant transferred to a new tube. A small aliquot of 0.1% (the PRE sample) was saved in a separate, labeled tube. […] Immediately thereafter, the crude bacterial lysate from the peptide library (200 μL) was added to each well and allowed to shake gently for one hour at 4° C. For round 2, this same procedure was followed. In round 3, the amount of lysate used was reduced to 100 μL. In subsequent rounds, the lysate was diluted 1:10 in HEKL/BSA.

Row | Binder | binding result
4 | IQGVLKDCGLL (peptide, not shown: small tags and cut ends, also: fused to LacI carrier via linker, letters not given here) [Clone No. 9 (Table IX) IQGVLKDCGLL] | binds
5 | MRESLKDCGLF (peptide, not shown: small tags and cut ends, also: fused to LacI carrier via linker, letters not given here) [Clone No. 17 (Table IX) MRESLKDCGLF] | binds
6 | ILTKLTDCGLF (peptide, not shown: small tags and cut ends, also: fused to LacI carrier via linker, letters not given here) [Clone No. 4 (Table IX) ILTKLTDCGLF] | binds
7 | MLKNLKDCGMF (peptide, not shown: small tags and cut ends, also: fused to LacI carrier via linker, letters not given here) [Clone No. 24 (Table IX) MLKNLKDCGMF] | binds
8 | B1 | binds
9 | IFLNLKDCGLF (peptide, not shown: small tags and cut ends, also: fused to LacI carrier via linker, letters not given here) [Clone No. 14 (Table IX) IFLNLKDCGLF] | binds
10 | IHASLRDCGLF (peptide, not shown: small tags and cut ends, also: fused to LacI carrier via linker, letters not given here) [Clone No. 11 (Table IX) IHASLRDCGLF] | binds
11 | B2 | binds
12 | LLDNIKDCGLF (peptide, not shown: small tags and cut ends, also: fused to LacI carrier via linker, letters not given here) [Clone No. 3 (Table IX) LLDNIKDCGLF] | binds
13 | IRETLKDCGLL (peptide, not shown: small tags and cut ends, also: fused to LacI carrier via linker, letters not given here) [Clone No. 19 (Table IX) IRETLKDCGLL] | binds
14 | IIDNLKDCGLF (peptide, not shown: small tags and cut ends, also: fused to LacI carrier via linker, letters not given here) [Clone No. 16 (Table IX) IIDNLKDCGLF] | binds
15 | IRENLEDCGLF (peptide, not shown: small tags and cut ends, also: fused to LacI carrier via linker, letters not given here) [Clone No. 15/28 (Table IX) IRENLEDCGLF] | binds
16 | ILADVIDCGLF (peptide, not shown: small tags and cut ends, also: fused to LacI carrier via linker, letters not given here) [Clone No. 26 (Table IX) ILADVIDCGLF] | binds
17 | MLENLKDCGLF (peptide, not shown: small tags and cut ends, also: fused to LacI carrier via linker, letters not given here) [Clone No. 18 (Table IX) MLENLKDCGLF] | binds
18 | VLEDLKSCGLF (peptide, not shown: small tags and cut ends, also: fused to LacI carrier via linker, letters not given here) [Clone No. 23 (Table IX) VLEDLKSCGLF] | binds
19 | LRESLKQCGLF (peptide, not shown: small tags and cut ends, also: fused to LacI carrier via linker, letters not given here) [Clone No. 6 (Table IX) LRESLKQCGLF] | binds

Molecular target: recombinant reconstituted β2 adrenergic receptor
Experiment: ELISA of clones panned from the Gs library, reconstituted β2 adrenergic receptor

Row | Binder | ELISA
20 | QRMPLRLFEFL (peptide, not shown: small tags and cut ends, not fully specified) [AG3 QRMPLRLFEFL] | 0.217
21 | PCIQLGQYESF (peptide, not shown: small tags and cut ends, not fully specified) [BAR40 PCIQLGQYESF] | 0.028
22 | QRLHLRGYEFL (peptide, not shown: small tags and cut ends, not fully specified) [AG13 QRLHLRGYEFL] | 0.054
23 | RWLHWQYRGRG (peptide, not shown: small tags and cut ends, not fully specified) [AG20 RWLHWQYRGRG] | 0.431
24 | QRMPLRQYELL (peptide, not shown: small tags and cut ends, not fully specified) [AG9 QRMPLRQYELL] | 0.19
25 | QRLRLGPDELF (peptide, not shown: small tags and cut ends, not fully specified) [AG4 QRLRLGPDELF] | 0.291
26 | ERLHRRLFQLH (peptide, not shown: small tags and cut ends, not fully specified) [BAR8 ERLHRRLFQLH] | 0.047
27 | QRVHLRQDELL (peptide, not shown: small tags and cut ends, not fully specified) [BAR2 QRVHLRQDELL] | 0.197
28 | QGMQLRRFKLR (peptide, not shown: small tags and cut ends, not fully specified) [AG1 QGMQLRRFKLR] | 0.435
29 | QRMNLGPCGLL (peptide, not shown: small tags and cut ends, not fully specified) [AG18 QRMNLGPCGLL] | 0.155
30 | NCMKFRSCGLF (peptide, not shown: small tags and cut ends, not fully specified; cysteine pairing not given here) [BAR20 NCMKFRSCGLF] | 0.079
31 | QWMDLRQHELL (peptide, not shown: small tags and cut ends, not fully specified) [BAR3 QWMDLRQHELL] | 0.185
32 | QRIHRRPFKFF (peptide, not shown: small tags and cut ends, not fully specified) [BAR1 QRIHRRPFKFF] | 0.218
33 | PRPRLLRFKIP (peptide, not shown: small tags and cut ends, also: fused to carrier via linker, not given here) [AG19 PRPRLLRFKIP] | 0.361
34 | DRMHLWRFGLL (peptide, not shown: small tags and cut ends, not fully specified) [AG11 DRMHLWRFGLL] | 0.192
35 | QRLRLRKYRLF (peptide, not shown: small tags and cut ends, not fully specified) [BAR31 QRLRLRKYRLF] | 0.026
36 | QGEHLRQLQLQ (peptide, not shown: small tags and cut ends, not fully specified) [AG2 QGEHLRQLQLQ] | 0.33
